In patent US20240132548A1 (Janssen / Centocor, published 2024):

Columns and labels:
Test in all cases: BLI (Octet), biotinylated mAb on streptavidin sensors, culture supernatant
[1] = biological target: T1, RSV180915 (I152M + K226M + D486N + S215P) (respiratory syncytial virus, subgroup B …, UniProt O36634 26-109; P13843 137-540)
T1 chain 1: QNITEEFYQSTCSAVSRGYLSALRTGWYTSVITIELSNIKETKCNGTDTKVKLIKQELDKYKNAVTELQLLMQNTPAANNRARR
T1 chain 2: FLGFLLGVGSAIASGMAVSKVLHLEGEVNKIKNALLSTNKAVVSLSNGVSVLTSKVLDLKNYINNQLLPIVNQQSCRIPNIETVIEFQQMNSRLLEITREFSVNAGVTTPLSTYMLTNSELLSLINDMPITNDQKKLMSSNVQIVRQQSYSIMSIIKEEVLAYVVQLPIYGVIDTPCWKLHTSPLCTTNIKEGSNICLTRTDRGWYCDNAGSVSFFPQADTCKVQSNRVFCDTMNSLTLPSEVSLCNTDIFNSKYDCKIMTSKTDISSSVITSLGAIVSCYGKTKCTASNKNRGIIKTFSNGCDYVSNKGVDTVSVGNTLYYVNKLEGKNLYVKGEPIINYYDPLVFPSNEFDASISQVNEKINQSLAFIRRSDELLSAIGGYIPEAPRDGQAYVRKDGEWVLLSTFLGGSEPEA
Description: (§1) Quantitative Octet (BioLayer Interferometry) was used for measuring protein concentration in the supernatants at day of harvest and after 7 or 30 days storage at 4° C. CR9501 (an antibody specifically recognizing pre-fusion RSV F protein, which comprises the variable regions of the antibodies 58C5 as described in WO2012/006596) and CR9506 (recognizing pre-fusion and post-fusion RSV F protein and comprising a heavy chain variable region comprising SEQ ID NO: 21, and a light chain variable region comprising SEQ ID NO: 22) were biotinylated by standard protocols and immobilized on Streptavidin biosensors (ForteBio, Portsmouth, UK).
(§2) Afterwards, the coated biosensors were blocked in mock cell culture supernatant. A quantitative experiment was performed as follows: temperature 30° C., shaking speed 1000 rpm, time of the assay 300 sec. The concentration of the protein was calculated using a standard curve. The standard curve was prepared for each coated antibody CR9501 and CR9506 using the pre-fusion RSV FA protein (SEQ ID NO: 19; described previously in WO17174568) diluted in mock medium. […] The data analysis was done using the ForteBio Data Analysis 10.0.1.6 software (ForteBio).

[2] = biological target: T2, RSV180910 (RSV FB signal peptide, C-tag) (respiratory syncytial virus, subgroup B …, UniProt O36634 26-109; P13843 137-540)
T2 construct: Same mature protein as RSV180916, expressed with the RSV B signal peptide; measured in culture supernatant, furin co-transfected
T2 chain 1: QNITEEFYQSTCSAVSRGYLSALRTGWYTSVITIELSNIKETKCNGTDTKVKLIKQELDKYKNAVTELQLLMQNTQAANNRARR
T2 chain 2: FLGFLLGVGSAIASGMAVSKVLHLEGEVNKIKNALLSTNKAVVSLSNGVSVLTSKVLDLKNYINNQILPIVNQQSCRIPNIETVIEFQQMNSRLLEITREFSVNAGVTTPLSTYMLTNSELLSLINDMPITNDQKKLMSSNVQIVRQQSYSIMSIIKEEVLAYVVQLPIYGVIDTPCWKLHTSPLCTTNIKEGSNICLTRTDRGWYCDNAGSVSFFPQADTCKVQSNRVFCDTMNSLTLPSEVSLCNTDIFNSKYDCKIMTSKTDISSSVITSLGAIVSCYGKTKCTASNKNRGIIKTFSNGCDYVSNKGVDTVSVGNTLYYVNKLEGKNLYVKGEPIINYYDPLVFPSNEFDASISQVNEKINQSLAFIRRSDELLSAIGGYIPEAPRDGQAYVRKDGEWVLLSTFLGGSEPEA
Description: as §1, §2

[3] = biological target: T3, RSV181177, non-stabilized RSV F B consensus soluble polypeptide with foldon and C-tag (respiratory syncytial virus, subgroup B …, UniProt O36634 26-109; O36634 137-540)
T3 construct: Measured in crude culture supernatant, no furin co-transfection; processing may be incomplete; End 551 is the end of the entry as counted; also called non-stabilized RSV F type B; non-stabilized F
T3 chain 1: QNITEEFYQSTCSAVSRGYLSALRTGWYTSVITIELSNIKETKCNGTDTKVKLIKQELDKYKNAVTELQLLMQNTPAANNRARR
T3 chain 2: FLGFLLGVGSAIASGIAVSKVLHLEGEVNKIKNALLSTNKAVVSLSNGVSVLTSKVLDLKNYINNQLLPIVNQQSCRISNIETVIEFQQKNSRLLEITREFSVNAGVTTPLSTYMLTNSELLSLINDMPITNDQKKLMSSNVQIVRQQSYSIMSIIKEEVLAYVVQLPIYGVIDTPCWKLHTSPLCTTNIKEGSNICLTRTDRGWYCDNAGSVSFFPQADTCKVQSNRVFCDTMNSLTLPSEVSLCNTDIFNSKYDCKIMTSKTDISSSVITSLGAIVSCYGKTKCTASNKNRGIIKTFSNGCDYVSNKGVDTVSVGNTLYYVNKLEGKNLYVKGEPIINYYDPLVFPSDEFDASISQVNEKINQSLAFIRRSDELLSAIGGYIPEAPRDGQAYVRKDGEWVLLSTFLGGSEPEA
Description: as §1, §2

[4] = biological target: T4, RSV181178 (I152M + K226M) (respiratory syncytial virus, subgroup B …, UniProt O36634 26-109; P13843 137-540)
T4 construct: Measured in crude culture supernatant, no furin co-transfection
T4 chain 1: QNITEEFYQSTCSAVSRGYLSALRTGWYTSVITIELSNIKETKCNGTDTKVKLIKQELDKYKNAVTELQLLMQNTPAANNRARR
T4 chain 2: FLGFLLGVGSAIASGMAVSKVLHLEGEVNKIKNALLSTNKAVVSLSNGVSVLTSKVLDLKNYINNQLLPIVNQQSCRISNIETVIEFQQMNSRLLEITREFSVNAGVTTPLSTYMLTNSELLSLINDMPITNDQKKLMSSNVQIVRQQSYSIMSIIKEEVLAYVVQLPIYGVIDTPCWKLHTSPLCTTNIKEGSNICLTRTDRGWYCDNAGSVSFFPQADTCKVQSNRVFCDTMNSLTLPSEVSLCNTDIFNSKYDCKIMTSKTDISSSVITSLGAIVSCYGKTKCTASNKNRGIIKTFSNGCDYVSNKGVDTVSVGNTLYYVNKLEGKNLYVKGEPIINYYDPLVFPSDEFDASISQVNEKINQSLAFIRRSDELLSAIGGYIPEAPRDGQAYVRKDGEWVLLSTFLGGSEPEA
Description: as §1, §2

Measured: binding result

B1: CR9506 (antibody, human IgG1, kappa, V domains shown)
VH: EVQLVQSGAEVKKPGSSVKVSCKASGGTFSRSLITWVRQAPGQGLEWMGEISLVFGSAKNAQKFQGRVTITADESTSTAHMEMISLKHEDTAVYYCAAHQYGSGTHNNFWDESELRFDLWGQGTLVTVSS
VL: DIVMTQSPSSLSASVGDRVTIACRASQSIGTYLNWYQQKPGKAPKLLIYAASSLQSGVPSRFSGSGSGTHFTLAISSLQAEDFATYSCQQSYTIPYTFGQGTKLEIKR
notes: Biotinylated for Octet; coated and also used HRP-labelled as detection antibody in the ELISA
binds: all assays above
